This passage reports protein stability index results from the supplement of paper PMC10724198.

± gives the standard deviation of the averaged measurements.
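Also: PSI is a weighted mean of sequencing reads over stability bins, variants kept only with over 10 reads, mCherry proximal and sfGFP distal, peptide attached via GGGS linker.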

The test system of this series is Saccharomyces cerevisiae. The series is described as follows: protein stability index of tFT-peptide fusion (C-terminal peptide) (PSI (0-1 scale)); higher = more stable (slower turnover). The conditions noted are these: genetic background: wild type; temperature: 30 C.
As for RGVPPPCPLLAA, the protein stability index worked out at 0.599 ± 0.077. As for RGWAGGRQGCGG, the protein stability index is 0.746 ± 0.055. RGWVEWGVRASE yielded a protein stability index of 0.749 ± 0.06. With RGYEGSEVQVGV the figure was 0.677 ± 0.043. Next, RGYGRGWRGVGA: 0.747 ± 0.18; RGYLAKELGVKS: 0.652 ± 0.02.

On to RHAFGSSHVRFF, for which the protein stability index was 0.679 ± 0.024. With RHLVSPSTRAIS the figure was 0.77 ± 0.15. Next, RHMLSDFIDACS: 0.72 ± 0.12. Next, RHPPPRSSPPDL: 0.639 ± 0.095; RHPVFSSTVSYI: 0.738 ± 0.03; RHSREPRASMTR: 0.641 ± 0.072. The sequence RHTFMCQRRVGL showed a protein stability index of 0.78 ± 0.084. For RHVSHASRLTPG, the protein stability index was 0.602 ± 0.11. Sequence RHYGVTSLISLQ displayed a protein stability index of 0.674 ± 0.01. With RIAPSLPPSSFL the figure was 0.688 ± 0.0095; with RIATRCEGPGHK, 0.663 ± 0.015.

RIDLFCVRSSLV yielded a protein stability index of 0.6573 ± 0.0054. With RIGEHGWLTGYI the figure was 0.736 ± 0.012.

RILVYRKENRKN returned a protein stability index of 0.678 ± 0.052. In the case of RINKKRETNQGK, the protein stability index worked out at 0.685 ± 0.05. Next, RIQMSGHTNLVG: 0.686 ± 0.024; RISPRVSARLCI: 0.616 ± 0.007. Turning to RITYIANNVMLF, the protein stability index was found to be 0.652 ± 0.028. On to RIYDNKNTGIYH, for which the protein stability index was determined as 0.707 ± 0.022.

RKCMSNSKNNNE had a protein stability index of 0.669 ± 0.018. With RKEAVTQTQKNT the figure was 0.672 ± 0.051. RKEQRTERKSQK displayed a protein stability index of 0.721 ± 0.066. For the sequence RKGERRKKKKRR, the protein stability index came out at 0.677 ± 0.051. With RKGKKNKKPKKQ the figure was 0.612 ± 0.02. RKKEKKERKERK: the protein stability index was found to be 0.66 ± 0.069.

In the case of RKKENKIANRKI, the protein stability index came out at 0.6893 ± 0.00094. For RKKIIRDKLNTS, the protein stability index was 0.709 ± 0.051. With RKKKKKKRGKNR the figure was 0.621 ± 0.043; with RKKREKNKKRKE, 0.695 ± 0.049; with RKKYPLMINGKR, 0.711 ± 0.0073. Next, RKMNEEKEIRRQ: 0.6569 ± 0.0065. Next, RKNQNAWMPALQ: 0.702 ± 0.1; RKRWQWGRVRGV: 0.617 ± 0.11; RKSCKRNERIRK: 0.669 ± 0.035.

RKSIGTAYRMPR: the protein stability index is 0.755 ± 0.081. RKSSLVARTGMI gave a protein stability index of 0.623 ± 0.071. With RKTEGGGEGLAV the figure was 0.728 ± 0.035.

RLARAPTQPRLS had a protein stability index of 0.67 ± 0.062. With RLASGGSAFINL the figure was 0.78 ± 0.2; with RLAVLSLPPHPT, 0.6685 ± 0.0037; with RLCSPVSVLLPP, 0.713 ± 0.047. With RLEAVLCRRFLR the figure was 0.6561 ± 0.0026; with RLFFSRSVRSFF, 0.529 ± 0.017. RLFTTVHSLQDV displayed a protein stability index of 0.674 ± 0.016. Next, RLGNPPPFSTLG: 0.691 ± 0.075.

RLGWGGVGGAGV displayed a protein stability index of 0.711 ± 0.033.

As to RLIPPQTAHEFP, the protein stability index came to 0.685 ± 0.028. For RLKFHRLVMTGY, the protein stability index was found to be 0.612 ± 0.031. With RLKTNKVIIKIK the figure was 0.6665 ± 0.0032; with RLLAGLPLGGGN, 0.656 ± 0.051. RLLCSETPPTLA yielded a protein stability index of 0.665 ± 0.014. As to RLLMIFTSKMFM, the protein stability index came to 0.6623 ± 0.0019. As to RLLVSDSLLLGC, the protein stability index is 0.684 ± 0.014. The sequence RLNNRVMGHIEA had a protein stability index of 0.6673 ± 0.0062.

RLNRSRAVTFRI returned a protein stability index of 0.663 ± 0.019. Next, RLPGLTHFLPKI: 0.654 ± 0.038. Next, RLPLSSPLRFSL: 0.712 ± 0.06; RLPPLLVPFPSS: 0.694 ± 0.015; RLPPPPPPPSTP: 0.725 ± 0.053. Next, RLPPPPPSPFPS: 0.778 ± 0.056; RLPRHLPPAPAL: 0.679 ± 0.025; RLPRRSVGRSTG: 0.673 ± 0.078. As to RLRPVLSPHAPI, the protein stability index was determined as 0.648 ± 0.033. Consider RLTEVRVTLGSL, for which the protein stability index worked out at 0.711 ± 0.082. Next, RLTKTRNDLRSL: 0.654 ± 0.016; RLTSPVLLFPLP: 0.713 ± 0.013.

RLVRVTSIKGKR displayed a protein stability index of 0.735 ± 0.054. Next, RMINRLEKKHTK: 0.771 ± 0.098; RMKKYKYELDLN: 0.659 ± 0.019. With RNKKKKNKNEKE the figure was 0.705 ± 0.0073; with RNKNNKKNKKIR, 0.702 ± 0.1. With RNNKMYKYQGNL the figure was 0.662 ± 0.083; with RNQQQENNKQSK, 0.694 ± 0.016; with RNSTDENDCGRK, 0.7062 ± 0.00038.
